Target: CD74 disordered region peptide (CLIP), …
Assay: modified sandwich ELISA, fluorescence grade by the table's key

Work on FlhG yielded a fluorescent signal (fluorescentsignal) of 100000 to 250000.

From US20250387450A1
